In patent publication US20230265151A1, “GIP/GLP1 CO-AGONIST COMPOUNDS” (priority 2020, published 2023):
Changes are numbered by the printed parent chain.

T1: human GIP receptor (human) (UniProt P48546)
T1 sequence (looked up): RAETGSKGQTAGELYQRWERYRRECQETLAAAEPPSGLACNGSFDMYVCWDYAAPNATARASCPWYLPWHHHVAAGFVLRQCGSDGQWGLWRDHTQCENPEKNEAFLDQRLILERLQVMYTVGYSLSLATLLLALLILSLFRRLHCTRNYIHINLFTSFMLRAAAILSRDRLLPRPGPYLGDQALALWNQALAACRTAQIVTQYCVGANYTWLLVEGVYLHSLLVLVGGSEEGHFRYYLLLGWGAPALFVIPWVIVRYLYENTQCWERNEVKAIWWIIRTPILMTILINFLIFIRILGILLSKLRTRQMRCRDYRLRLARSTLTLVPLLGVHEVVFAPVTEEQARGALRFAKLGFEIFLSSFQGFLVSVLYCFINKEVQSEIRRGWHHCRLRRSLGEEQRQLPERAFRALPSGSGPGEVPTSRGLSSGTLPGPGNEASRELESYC

T2: human GIP receptor (human, UniProt P48546 22-466)
T2 sequence (looked up): T1 sequence (looked up)

B1: Example 384 (peptide)
peptide: YXEGTXTSDXXIXLDXKAQXKFIXXLIEGGPSSGAPPPS
modifications: Y-Aib-EGT-αMeF(2F)-TSD-4Pal-Aib-I-αMeL-LD-Orn-K((2-[2-(2-Amino-ethoxy)-ethoxy]-acetyl)2-CO-(CH2)12-CO2H)AQ-Aib-K((2-[2-(2-Amino-ethoxy)-ethoxy]-acetyl)2-CO-(CH2)12-CO2H)FI-(D-Glu)-αMeY-LIEGGPSSGAPPPS-NH2
B2: Example 386 (peptide)
peptide: B1 peptide with X10V
modifications: Y-Aib-EGT-αMeF(2F)-TSDV-Aib-I-αMeL-LD-Orn-K((2-[2-(2-Amino-ethoxy)-ethoxy]-acetyl)2-CO-(CH2)12-CO2H)AQ-Aib-K((2-[2-(2-Amino-ethoxy)-ethoxy]-acetyl)2-CO-(CH2)12-CO2H)FI-(D-Glu)-αMeY-LIEGGPSSGAPPPS-NH2
B3: Example 405 (peptide)
peptide: B1 peptide
modifications: Y-Aib-EGT-αMeF(2F)-TSD-4Pal-Aib-I-αMeL-LD-Orn-K(PEG4-(γ-Glu)-CO-(CH2)12-CO2H)AQ-Aib-K(PEG4-(γ-Glu)-CO-(CH2)12-CO2H)FI-(D-Glu)-αMeY-LIEGGPSSGAPPPS-NH2
B4: Example 396 (peptide)
peptide: B1 peptide with X10Y, K21E, E28K
modifications: Y-Aib-EGT-αMeF(2F)-TSDY-Aib-I-αMeL-LD-Orn-K((2-[2-(2-Amino-ethoxy)-ethoxy]-acetyl)2-(10-(4-carboxyphenoxy)decanoyl))AQ-Aib-EFI-(D-Glu)-αMeY-LIK((2-[2-(2-Amino-ethoxy)-ethoxy]-acetyl)2-(10-(4-carboxyphenoxy)decanoyl))GGPSSGAPPPS-NH2
B5: Example 404 (peptide)
peptide: B1 peptide
modifications: Y-Aib-EGT-αMeF(2F)-TSD-4Pal-Aib-I-αMeL-LD-Orn-K(PEG3-(γ-Glu)-CO-(CH2)12-CO2H)AQ-Aib-K(PEG3-(γ-Glu)-CO-(CH2)12-CO2H)FI-(D-Glu)-αMeY-LIEGGPSSGAPPPS-NH2
B6: Example 393 (peptide)
peptide: B1 peptide with X10Y
modifications: Y-Aib-EGT-αMeF(2F)-TSDY-Aib-I-αMeL-LD-Orn-K((2-[2-(2-Amino-ethoxy)-ethoxy]-acetyl)2-(10-(4-carboxyphenoxy)decanoyl))AQ-Aib-K((2-[2-(2-Amino-ethoxy)-ethoxy]-acetyl)2-(10-(4-carboxyphenoxy)decanoyl))FI-(D-Glu)-αMeY-LIEGGPSSGAPPPS-NH2
B7: Example 394 (peptide)
peptide: B1 peptide with X10V
modifications: Y-Aib-EGT-αMeF(2F)-TSDV-Aib-I-αMeL-LD-Orn-K((2-[2-(2-Amino-ethoxy)-ethoxy]-acetyl)2-(10-(4-carboxyphenoxy)decanoyl))AQ-Aib-K((2-[2-(2-Amino-ethoxy)-ethoxy]-acetyl)2-(10-(4-carboxyphenoxy)decanoyl))FI-(D-Glu)-αMeY-LIEGGPSSGAPPPS-NH2
B8: Example 398 (peptide)
peptide: B1 peptide with X10V
modifications: Y-Aib-EGT-αMeF(2F)-TSDV-Aib-I-αMeL-LD-Orn-K((2-[2-(2-Amino-ethoxy)-ethoxy]-acetyl)-(γ-Glu)-CO-(CH2)12-CO2H)AQ-Aib-K((2-[2-(2-Amino-ethoxy)-ethoxy]-acetyl)-(γ-Glu)-CO-(CH2)12-CO2H)FI-(D-Glu)-αMeY-LIEGGPSSGAPPPS-NH2

What follows are binders tested against hGLP-1R (Homo sapiens, UniProt P43220) (assay: cell-based or functional assay).

Compared with B1, B2 is 1.6-fold lower in cAMP EC50: 0.308 nM for the first, 0.194 nM for the second.

First: B3
Second: B4
The cAMP EC50 of the first is 4.3-fold higher: 1.26 nM for the first, 0.291 nM for the second.

Compared with B5, B6 is 1.7-fold lower in cAMP EC50: 0.632 nM for the first, 0.372 nM for the second.

B7 and B8 are within 1.5-fold of each other in cAMP EC50: 0.223 nM for the first, 0.215 nM for the second.

Compared with B1, B2 is higher in cAMP Emax: 98.2% for the first, 98.9% for the second.

Going from B3 to B4, the cAMP Emax rises from 93.3% to 107%.

Going from B5 to B6, the cAMP Emax rises from 94.3% to 96.8%.

B7 and B8 are the same in cAMP Emax: 101% for the first, 101% for the second.

These binders were tested against T1, human GIP receptor (human) (assay: cell-based or functional assay).

B1 and B2 are within 1.5-fold of each other in cAMP EC50: 0.0124 nM for the first, 0.0174 nM for the second.

First: B3
Second: B4
The cAMP EC50 of the first is 1.8-fold higher: 0.0209 nM for the first, 0.0113 nM for the second.

B5 and B6 are within 1.5-fold of each other in cAMP EC50: 0.014 nM for the first, 0.0115 nM for the second.

B7 and B8 are within 1.5-fold of each other in cAMP EC50: 0.0179 nM for the first, 0.0166 nM for the second.

First: B1
Second: B2
The cAMP Emax of the first is lower: 94.5% for the first, 95.7% for the second.

First: B3
Second: B4
The cAMP Emax of the first is higher: 100% for the first, 96.2% for the second.

Going from B5 to B6, the cAMP Emax falls from 101% to 94.3%.

Compared with B7, B8 is lower in cAMP Emax: 97.7% for the first, 97.4% for the second.

Each binder was assayed against human glucagon receptor (human) (UniProt P47871) (assay: cell-based or functional assay).

B1 and B2 cannot be ordered by cAMP EC50: > 9950 nM for the first, > 9950 nM for the second.

B3 and B4 cannot be ordered by cAMP EC50: > 9950 nM for the first, > 9950 nM for the second.

B5 and B6 cannot be ordered by cAMP EC50: > 9950 nM for the first, > 9950 nM for the second.

B7 and B8 cannot be ordered by cAMP EC50: > 9950 nM for the first, > 9950 nM for the second.

The binders below were run against T2, human GIP receptor (assay: cell-based or functional assay).

Compared with B1, B2 is 4.6-fold higher in “cAMP EC50 (1.0% HSA)” value: 0.457 nM for the first, 2.08 nM for the second.

Compared with B3, B4 is 2.1-fold lower in “cAMP EC50 (1.0% HSA)” value: 1.23 nM for the first, 0.595 nM for the second.

Going from B5 to B6, the “cAMP EC50 (1.0% HSA)” value falls from 1.74 nM to 0.547 nM (3.2-fold).

Compared with B7, B8 is 3.9-fold higher in “cAMP EC50 (1.0% HSA)” value: 1.38 nM for the first, 5.4 nM for the second.

Compared with B2, B4 is lower in “cAMP Emax (1.0% HSA)” value: 81.3% for the first, 67.1% for the second.

Compared with B6, B7 is higher in “cAMP Emax (1.0% HSA)” value: 66.7% for the first, 84.6% for the second.

In the case of B8, the “cAMP Emax (1.0% HSA)” value is reported as 91.9%.

These binders were tested against human GLP-1 receptor (human, UniProt P43220 24-463) (assay: cell-based or functional assay).

Going from B1 to B2, the “cAMP EC50 (1.0% HSA)” value rises from 5.32 nM to 17.7 nM (3.3-fold).

Compared with B3, B4 is 5.8-fold lower in “cAMP EC50 (1.0% HSA)” value: 37.5 nM for the first, 6.49 nM for the second.

First: B5
Second: B6
The “cAMP EC50 (1.0% HSA)” value of the first is 5.3-fold higher: 49.1 nM for the first, 9.18 nM for the second.

Compared with B7, B8 is 7.1-fold higher in “cAMP EC50 (1.0% HSA)” value: 5.83 nM for the first, 41.3 nM for the second.

First: B3
Second: B4
The “cAMP Emax (1.0% HSA)” value of the first is lower: 78.1% for the first, 94.4% for the second.

Each binder was assayed against human glucagon receptor (human, UniProt P47871 26-477) (assay: cell-based or functional assay).
Chain of human glucagon receptor (P47871 26-477): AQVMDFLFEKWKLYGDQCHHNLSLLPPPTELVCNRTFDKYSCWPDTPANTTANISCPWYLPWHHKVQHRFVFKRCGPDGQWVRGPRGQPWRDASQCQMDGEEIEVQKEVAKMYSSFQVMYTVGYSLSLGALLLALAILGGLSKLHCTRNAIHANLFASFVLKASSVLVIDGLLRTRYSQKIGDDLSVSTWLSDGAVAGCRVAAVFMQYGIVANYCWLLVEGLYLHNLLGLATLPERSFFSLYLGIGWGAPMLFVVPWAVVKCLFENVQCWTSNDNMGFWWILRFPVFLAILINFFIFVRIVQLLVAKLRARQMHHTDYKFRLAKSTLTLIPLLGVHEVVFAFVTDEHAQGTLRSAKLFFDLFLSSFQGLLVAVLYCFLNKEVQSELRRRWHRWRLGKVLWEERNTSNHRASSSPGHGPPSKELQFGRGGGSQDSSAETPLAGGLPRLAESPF

B1 and B2 cannot be ordered by “cAMP EC50 (1.0% HSA)” value: > 9950 nM for the first, > 9950 nM for the second.

B3 and B4 cannot be ordered by “cAMP EC50 (1.0% HSA)” value: > 9950 nM for the first, > 9950 nM for the second.

B5 and B6 cannot be ordered by “cAMP EC50 (1.0% HSA)” value: > 9950 nM for the first, > 9950 nM for the second.

B7 and B8 cannot be ordered by “cAMP EC50 (1.0% HSA)” value: > 9950 nM for the first, > 9950 nM for the second.
